± gives the uncertainty stated by the source.
B1: Bromodomain adjacent to zinc finger domain protein 2B, residues 1927 to 1982; numbered along this chain, Q9UIF8 (parent)
chain: KSIMKVYCQICRKGDNEELLLLCDGCDKGCHTYCHRPKITTIPDGDWFCPACIAKA

Variants of: B1
Assay: abundance fitness (aPCA) (normalised: wild type 0, dead -1); higher = more abundant; growth selection in yeast, the domain comes from the species named
Details: Homo sapiens

| Variant | abundance fitness |
| --- | --- |
| D15V | -0.06 ± 0.094 |
| D15G | -0.099 ± 0.068 |
| D15I | -0.221 ± 0.19 |
| D15T | -0.22 ± 0.14 |
| D15E | 0.113 ± 0.11 |
| D15N | -0.008 ± 0.17 |
| D15Q | -0.238 ± 0.16 |
| D15P | -0.293 ± 0.12 |
| D15F | -0.118 ± 0.36 |
| D15K | -0.038 ± 0.16 |
| D15R | -0.263 ± 0.069 |
| D15W | -0.279 ± 0.12 |
| D15M | -0.406 ± 0.21 |
| D15C | -0.122 ± 0.12 |
| D15H | -0.429 ± 0.2 |
| D15A | -0.234 ± 0.089 |
| D15Y | -0.452 ± 0.17 |
| D15L | -0.362 ± 0.12 |
| C26E | -0.676 ± 0.12 |
| C26S | -0.616 ± 0.089 |
| C26F | -0.969 ± 0.3 |

| Variant | abundance fitness |
| --- | --- |
| C26L | -0.819 ± 0.088 |
| C26H | -1.04 ± 0.27 |
| C26I | -0.673 ± 0.4 |
| C26N | -0.753 ± 0.2 |
| C26Q | -0.711 ± 0.15 |
| C26D | -0.676 ± 0.19 |
| C26R | -0.674 ± 0.069 |
| C26Y | -0.706 ± 0.13 |
| C26V | -0.612 ± 0.1 |
| C26G | -0.572 ± 0.076 |
| C26T | -0.678 ± 0.11 |
| C26A | -0.598 ± 0.11 |
| C26K | -0.744 ± 0.14 |
| C26P | -0.75 ± 0.14 |
| C26W | -0.931 ± 0.12 |
| L20R | -0.318 ± 0.093 |
| L20V | -0.069 ± 0.079 |
| L20N | -0.337 ± 0.12 |
| L20E | -0.34 ± 0.11 |
| L20G | -0.509 ± 0.11 |
| L20W | -0.354 ± 0.14 |

| Variant | abundance fitness |
| --- | --- |
| L20P | -0.421 ± 0.094 |
| L20M | -0.009 ± 0.13 |
| L20A | -0.227 ± 0.076 |
| L20C | -0.011 ± 0.14 |
| L20F | 0.058 ± 0.13 |
| L20Q | -0.34 ± 0.14 |
| L20D | -0.566 ± 0.14 |
| L20K | -0.138 ± 0.14 |
| L20T | -0.094 ± 0.096 |
| L20S | -0.308 ± 0.092 |
| I10N | 0.266 ± 0.17 |
| I10W | -0.03 ± 0.099 |
| I10V | -0.051 ± 0.079 |
| I10M | -0.047 ± 0.1 |
| I10S | -0.055 ± 0.078 |
| I10P | -0.479 ± 0.11 |
| I10L | 0.004 ± 0.08 |
| I10T | -0.01 ± 0.13 |
| I10E | 0.095 ± 0.087 |
| I10K | -0.131 ± 0.13 |
| I10Q | -0.009 ± 0.11 |

| Variant | abundance fitness |
| --- | --- |
| I10Y | -0.135 ± 0.2 |
| I10F | -0.181 ± 0.18 |
| I10H | 0.079 ± 0.18 |
| I10G | -0.148 ± 0.069 |
| I10C | 0.089 ± 0.13 |
| D27A | -0.112 ± 0.083 |
| D27C | -0.187 ± 0.11 |
| D27Y | -0.085 ± 0.13 |
| D27S | -0.099 ± 0.09 |
| D27M | -0.128 ± 0.19 |
| D27G | 0.023 ± 0.065 |
| D27T | -0.08 ± 0.11 |
| D27K | -0.001 ± 0.17 |
| D27N | -0.096 ± 0.11 |
| D27W | -0.069 ± 0.088 |
| D27V | -0.222 ± 0.084 |
| D27R | -0.127 ± 0.074 |
| D27E | 0.109 ± 0.12 |
| D27P | -0.173 ± 0.12 |
| Q9G | -0.038 ± 0.059 |

Source: the Human Domainome abundance scans (Beltran et al. 2025)
